Results as given in article PMC6640694 (Antibodies, 2019).
Numbering of substitutions follows the chain as printed. Read-outs that look alike come from different tables or passages of the source.

What was measured:
[1] = biological target: T1, recombinant His-tagged human OX40 extracellular domain (Homo sapiens, UniProt P43489)
[2] = biological target: T2, human OX40 expressed on Flp-In CHO cells (Homo sapiens, UniProt P43489); assay: cell-based or functional assay
[3] = biological target: T1, recombinant His-tagged human OX40 …; assay: BLI; Octet Red96; 5 μg/mL antibody loaded onto Protein A biosensor, dipped into His-tagged OX40 extracellular domain at 200, 100 and 50 nM or 1600, 800 and 400 nM; 1:1 binding model, global fit; details: one partner purified
[4] = biological target: T2, human OX40 expressed on Flp-In CHO cells; assay: flow cytometry on cells; one million CHO cells (1:1 mix of OX40-expressing and PD-1-expressing negative control cells) stained with 1 μg mAb in 100 μL MACS Buffer (DPBS, 0.5% BSA, 2 mM EDTA), 30 min, 4 °C; detected with anti-human IgG Fc-PE; details: partners not purified

T1 sequence (P43489 29-214): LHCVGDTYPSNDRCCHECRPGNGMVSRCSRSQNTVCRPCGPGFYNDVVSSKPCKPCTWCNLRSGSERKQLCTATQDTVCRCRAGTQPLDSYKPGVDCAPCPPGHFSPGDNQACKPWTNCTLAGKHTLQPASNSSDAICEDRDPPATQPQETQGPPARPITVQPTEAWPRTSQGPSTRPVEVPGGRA
T2 sequence (P43489 29-277): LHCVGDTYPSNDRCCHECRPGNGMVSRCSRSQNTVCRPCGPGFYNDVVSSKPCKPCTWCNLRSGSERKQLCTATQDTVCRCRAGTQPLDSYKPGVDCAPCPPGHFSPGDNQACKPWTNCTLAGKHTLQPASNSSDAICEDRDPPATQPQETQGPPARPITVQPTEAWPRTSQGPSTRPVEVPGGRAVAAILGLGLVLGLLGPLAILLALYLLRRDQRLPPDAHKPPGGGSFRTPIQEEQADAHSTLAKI

B1: tOX40.39 (S-CL-LN-1) (antibody, V domains shown)
VH: EVQLVESGGGLVQPGGSLRLSCAASGFTFSNYAMTWVRQAPGKGLEWVSTISGSGGSTYYADSVKGRFTISRDNSKNTLYLQMNSLRAEDTAVYYCAKADCGDNCYSFFDYWGQGTLVTVSS
VL: DIQMTQSPSSLSASVGDRVTITCRASQGISNWLAWYQQKPEKAPKSLIYAASSLQSGVPSRFSGSGSGTDFTLTISSLQPEDFATYYCQQYNSYPPTFGRGTKVEIK
Kd [1]: 90 nM

B2: tOX40.22 (S-CL-LN-5) (antibody, V domains shown)
VH: QVQLVESGGGVVQPGRSLRLSCAASGFTFSNYGMHWVRQAPGKGLEWVAVIWLDGSNKYYADSVKGRFTISRDNSKNTLYLQMNSLRAEDTAVYYCARAAAGSLYYGMDVWGQGTTVTVSS
VL: B1 VL with S30N, N31T, N92Y, P96W, R100Q, K107R
Kd [1]: 7.3 nM

B3: tOX40.41 (S-CL-LN-9) (antibody, V domains shown)
VH: QVQLQESGPGLVKPSETLSLTCTVSGGSISSYYWSWIRQPPGKGLEWIGYIYYSGSTNYNPSLKSRVTISVDTSKNQFSLKLSSVTAADTAVYYCARYYDILTVWDWFDPWGQGTLVTVSS
VL: B1 VL with N31S, E41G, P96I, R100Q, K103R, V104L
Kd [1]: 58.4 nM

B4: tOX40.37 (S-S-Sp-10/S-CL-Sp-1) (antibody, V domains shown)
VH: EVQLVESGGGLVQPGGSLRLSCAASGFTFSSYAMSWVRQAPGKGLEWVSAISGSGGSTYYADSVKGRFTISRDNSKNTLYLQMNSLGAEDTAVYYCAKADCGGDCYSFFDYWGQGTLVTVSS
VL: B1 VL with N31S, R100Q
Kd [1]: 12.5 nM

B5: tOX40.24 (antibody, V domains shown)
VH: QVQLVESGGGVVQPGRSLRLSCAASGFTFRSYGMHWVRQAPGKGLEWLAIIWYDGSNKYYADSVKGRLTISRDNSKNTLYLQMNSLRAEDTAVYYCARDTQVAEAGFPHHHYYGMDVWGQGTTVTVSS
VL: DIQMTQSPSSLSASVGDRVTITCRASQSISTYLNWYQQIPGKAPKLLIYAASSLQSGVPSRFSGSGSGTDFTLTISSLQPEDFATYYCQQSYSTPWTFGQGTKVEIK
notes: human IgHG1 constant domains; kappa; source: ExpiCHO, transiently transfected; quantified in the supernatants
Promega In Vitro Assay EC50 (Agonist): luminescence of OX40-expressing Jurkat cells with FcγRIIB/CHO-K1 cells [2]: 0.024 µg/mL | Kd [3]: 22.9 nM

B6: tOX40.31 (S-CL-LN-11) (antibody, V domains shown)
VH: QVQLQESGPGLVKPSETLSLTCTVSGDSISFYYWSWIRQPPGKGLEWIGCIYYSGSTNYNPSLKSRVTISVDTSKNQFSLKLNSVTAADTAVYYCARRLWFGVFDYWGQGTLVPVSS
VL: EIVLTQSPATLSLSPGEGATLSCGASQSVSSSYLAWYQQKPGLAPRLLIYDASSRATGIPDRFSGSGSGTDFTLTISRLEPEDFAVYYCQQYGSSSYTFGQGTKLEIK
Kd [1]: 22.4 nM

B7: tOX40.40 (S-CL-LN-7) (antibody, V domains shown)
VH: QVQLVESGGDVVQPGMSLRLSCAASGFTFSDYGMHWVRQAPGKGLEWVAVIWYDGSNKYYEDSVKGRFTISRDNSKNTLYLQMNSLRAEDTAVYYCTRAGFGESGYGMDVWGQGTTVTVSS
VL: DIQMTQSPSSLSASVGDRVTITCRASQGISNYLAWYQQKPGKVPKLLIYAASTLQSGVPSRFSGSGSGTDFTLTISSLQPEDVATYYCQKYHSAPWTFGQGTKVEIK
Kd [1]: 151 nM

B8: tOX40.23 (S-CL-LN-8) (antibody, V domains shown)
VH: B7 VH with D10G, M16R, D31N, N57K, E61A, T97A
VL: B7 VL with I21F, S30N, H92Y, I106V
Kd [1]: 5.2 nM

B9: tOX40.19 (S-CL-LN-4) (antibody, V domains shown)
VH: QVQLVESGGGVVQPGRSLRLSCAASGFTFSTYGMHWVRQAPGKGLEWVAVIWYDGSNKYYADSVKGRFTISRDNSKNTLYLQMNSLRAEDTAVYYCARTHYDILTGPNWFDPWGQGTLVTVSS
VL: DIQMTQSPSSLSASVGDRVTITCRASQDIRNDLGWYQQKPGKAPKRLIYAASSLQSGVPSRFSGSGSGTEFTLTISSLQPEDFATYYCLQHNSYPFTFGPGTKVDIK
Kd [1]: 7.7 nM

B10: tOX40.15 (S-S-Sp-6) (antibody, V domains shown)
VH: QVQLVESGGGVVQPGRSLRLSCAASGFTFSSYGMHWVRQAPGKGLEWVAIIWYDGSNKYYADSVKGRFTISRDNSKNTLYLQMNSLRAEDTAVYFCAREGDYYGSGSYYPLDYYYYGMDVWGQGTTVTVSS
VL: DIQLTQSPSFLSASVGDRVTITCRASQGISSYLAWYQQKPGKAPKLLIYAASTLQSGVPSRFSGSGSGTEFTLTISSLQPEDFATYYCQQLNSFPRTFGQGTKVEIK
Kd [1]: 6 nM

B11: tOX40.63 (antibody, V domains shown)
VH: QVQLVQSGAEVKKPGASVKVSCKVSGYTLTELSMHWVRQAPGKGLEWMGGFDPEDGETIYAQKFQGRVTMTEDTSTDTAYMELSSLRSEDTAVYYCAANWGSDYYYGMDVWGQGTTVTVSS
VL: B10 VL with D1A, F10S, Y32A, A50D, T53S, Q55E, E70D, L91F, S93N, F94Y
notes: as for B5
binding result [4]: no binding (tested: 1 μg of anti-OX40 mAb in 100 μL)

B12: tOX40.4 (S-S-Sp-1/S-CL-Sp-2) (antibody, V domains shown)
VH: QVQLVQSGAEVKKPGASVKVSCKVSGYTLTELSMHWVRQAPGKGLEWMGGFDPKDGETIYAQKFQGRVTMTEDTSTDTAYMELSSLRSEDTAVYYCSTGYCSTTSCGGFDPWGQGTLVTVSS
VL: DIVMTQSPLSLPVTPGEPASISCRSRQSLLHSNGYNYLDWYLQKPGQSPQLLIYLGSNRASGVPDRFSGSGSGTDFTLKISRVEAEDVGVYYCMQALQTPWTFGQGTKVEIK
Kd [1]: 9 nM

B13: tOX40.35 (S-S-Sp-3) (antibody, V domains shown)
VH: QVQLVQSGAEVKKPGASVKVSCKASGYTFTSYGITWVRQAPGQGLEWVGWISAYNGNTNYAQKLQGRVTMTTDTSTSTAYMELRSLRSDDTAVYYCARDFAGGSYYFDYWGQGTLVTVSS
VL: not shown
Kd [1]: 2.7 nM

B14: tOX40.21 (S-CL-LN-2) (antibody, V domains shown)
VH: QVQLVESGGGVVQPGRSLRLSCAASGFTFSNYGMHWVRQAPGKGLEWVAVIWYDGSNKYYADSVKGRFTISRDNSKNTLYLQMNSLRAEDTAVYYCARNGDSYFDYWGQGTLVTVSS
VL: not shown
Kd [1]: 7 nM
